Results as given in patent US20230000974A1.

Tested on: T1, fluorogenic substrate (R&D systems, cat no. ES007), peptide YVADAPK between Mca and Dnp groups
T1 sequence: YVADAPK

Substance: commercial ACE-2 from Sino Biological (cat no 10108H08H20)
- enzymatic activity assay using a fluorogenic substrate (fluorescence, excitation 320 nm, emission 405 nm): All four samples appeared to have similar levels of activity
